Values quoted from earlier work as cited in PMC2752191.

How the values were obtained:
[1] = molecular target: Beclin1 peptide (UniProt Q14457)
[2] = molecular target: Bax peptide (UniProt Q07812)
[3] = molecular target: Bak peptide (UniProt Q16611)

Chain of vBcl-2 (P89884 whole entry): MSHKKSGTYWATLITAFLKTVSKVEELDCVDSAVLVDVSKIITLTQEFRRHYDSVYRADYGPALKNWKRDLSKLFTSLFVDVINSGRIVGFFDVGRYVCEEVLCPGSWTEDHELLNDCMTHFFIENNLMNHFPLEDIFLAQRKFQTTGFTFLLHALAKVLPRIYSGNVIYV
Chain of Bax peptide (Q07812 55-74): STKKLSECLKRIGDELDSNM
Chain of Beclin1 peptide (Q14457 107-130): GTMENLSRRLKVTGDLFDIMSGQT

In the case of vBcl-2 (from UniProt P89884), the Kd [1] is given as 40 nM, the Kd [2] is given as 690 nM and the Kd [3] is given as 76 nM.
